Laboratory results from patent US9702869B2, “Assays, antibodies, immunogens and compositions related to 5-FU” (WELLSTAT DIAGNOSTICS, LLC, priority 2011, dated 2017).

Legend:
Assay type in all cases: binding
[1] = Indirect antibody ELISA on 5-FU-BSA coated plates, competition with 5-FU
Description: (§1) In this experiment, antibody capture reagents were 5-FU BSA conjugates modified at the 5-FU position 1 with either 3-carbon or 5-carbon linkers. 5-FU was conjugated to BSA by mixing 1-5C-5-FU-NHS ester with BSA at a challenge ratio of 12:1 (molar ratios of 1-5C-5-FU-NHS to BSA) in a phosphate buffer containing a phosphate buffered saline containing 10.5 mM KH2PO4, 139.5 mM K2HPO4 and 150.6 mM NaCl, =pH 7.7-7.9 (typically pH 7.8) for 1 hour or more incubation at room temperature (typically 1 hour incubation at room temperature). After the incubation, unbound 1-5C-5-FU-NHS ester was removed by 3 buffer exchanges in an AmiconUltra4-30K filter (Millipore, Cat#UFC803024). BSA conjugated with 5-FU (5-FU-BSA) was concentrated and stored in the same phosphate buffer (pH 7.8).
(§2) This indirect antibody ELISA assay 5-FU assay was constructed using either 1-3C-5-FU-BSA or 1-5C-5-FU-BSA as antibody capture reagent and a horseradish perioxidase (HRP) conjugated goat anti-mouse antibody as the antibody detector reagent. The binding of 5-FU antibody was detected with 3,3,5,5-TetraMethylBenzidine (TMB) as the HRP enzyme substrate. The 5-FU ELISA assay signal (OD450) decreased proportionally to the increasing concentration of 5-FU. The 5-FU IC50 and tegafur cross-reactivity were determined as in the previous section. […]

[2] = Indirect antibody ELISA, cross-reactivity with tegafur; settings: (IC50 for 5-FU/IC50 for testing chemical)%
Description: as §1, with “BSA conjugated with 5-FU (5-FU-BSA) was concentrated and stored in the same phosphate buffer (pH 7.8).” left out
as §2, with “The 5-FU ELISA assay signal (OD450) decreased proportionally to the increasing concentration of 5-FU.” left out
In addition to tegafur, several 5-FU structurally related chemicals were also evaluated for their cross-reactivity to the antibodies generated with 5-FU conjugate with the 3-carbon linker and were summarized below in Table 3. […]

[3] = Indirect antibody ELISA, cross-reactivity with DH-5-FU; settings: Table 3; (IC50 for 5-FU/IC50 for testing chemical)%
Source text: (§3) This indirect antibody ELISA assay 5-FU assay was constructed using either 1-3C-5-FU-BSA or 1-5C-5-FU-BSA as antibody capture reagent and a horseradish perioxidase (HRP) conjugated goat anti-mouse antibody as the antibody detector reagent. The binding of 5-FU antibody was detected with 3,3,5,5-TetraMethylBenzidine (TMB) as the HRP enzyme substrate. The 5-FU ELISA assay signal (OD450) decreased proportionally to the increasing concentration of 5-FU. The 5-FU IC50 and tegafur cross-reactivity were determined as in the previous section.
(§4) In addition to tegafur, several 5-FU structurally related chemicals were also evaluated for their cross-reactivity to the antibodies generated with 5-FU conjugate with the 3-carbon linker and were summarized below in Table 3. […] However, antibody 36H11 was highly specific for 5-FU and was detected for about 12% or lower cross-reactivity with tegafur.

[4] = Indirect antibody ELISA, cross-reactivity with uracil; settings: Table 3; (IC50 for 5-FU/IC50 for testing chemical)%
Source text: as §3, §4

[5] = Indirect antibody ELISA, cross-reactivity with cytosine; settings: Table 3; (IC50 for 5-FU/IC50 for testing chemical)%
Source text: as §3, §4

[6] = Indirect antibody ELISA, cross-reactivity with thymine; settings: Table 3; (IC50 for 5-FU/IC50 for testing chemical)%
Source text: as §3, §4

[7] = Hybridoma supernatant competition test in ECL bridging assay; settings: hybridoma culture supernatant; signal decreased in the presence of low level of 5-FU
Description: Hybridomas were screened between days 10-14 for the secretion of 5-FU antibody by the 5-FU antibody assay (Bridging-assay) described before. 25 μL of culture supernatant were transferred to an assay plate and mixed with 50 μL of 5-FU antibody assay master mix containing 100 ng/mL of each Bi-1-3C-5-FU-BSA and TAG Plus 1-3C-5-FU-BSA in 200 μg/mL of M280-SA beads. Samples were incubated for 30 minutes with shaking. Beads were recovered and resuspended in 150 μL of DILUENT and read in an M384 analyzer with 100 μL draw volume. Hybridomas identified from plates with greater than 20% of growing wells were re-cloned by limiting dilution in 96-well plate at 0.3 and 1.0 cells/well.
5-FU antibody specificity and cross-reactivity was tested on hybridomas that were identified as positive for 5-FU binding. […]
Typically, 25 μL of culture supernatant were mixed with 50 μL of 5-FU assay master mix containing 100 ng/mL of each Bi-1-3C-5-FU-BSA and TAG Plus 1-3C-5-FU-BSA in 200 μg/mL of M280-SA beads with or without competing chemicals. […] Beads were recovered and resuspended in 150 μL of DILUENT and read in an M384 analyzer with 100 μL draw volume.
X_RCT=cross-reactivity (calculated 5-FU concentration/10 μg/mL).

[8] = ECL assay with TAG Plus mAb as detector and position-3 modified 5-FU capture reagent; settings: Bi-3-5C-5-FU-HSA pre-bound M280-SA beads
Description: Unless otherwise specifically mentioned, a 5-FU immunoassay was set up by mixing the same volumes of sample with capture reagent first and then with detector reagent in a 96 well plate. After adding reagents, samples were mixed for 5 minutes at room temperature with shaking. After the incubation, beads were recovered by attaching a plate magnet to the assay plate for 2 minutes and resuspending in 150 μL of DILUENT. Samples were either read in an M384 or an M1MR analyzer with 100 μL draw volume under the 96 standard round plate protocol.
The performance of TAG Plus conjugated antibody 61C6 as an assay detector reagent was studied. Assay performance was evaluated in 5-FU Antibody Screening Buffer with a 5-fold 5-FU serial dilution curve from 150 μg/mL to 9.6 ng/mL as 5-FU calibrators (samples).
A total of 5 capture reagents were evaluated in this experiment. Three capture reagents were 5-FU bound to M280-SA beads through biotinylated BSA including Bi-1-3C-5-FU-BSA, Bi-1-5C-5-FU-BSA and Bi-3-5C-5-FU-HSA pre-bound to M280-SA beads at the ratio of 1.0 μg capture reagent per mg beads (200 μg/mL). […]
The assay detector reagent used was TAG Plus 5-FU mAb 61C6 at the concentration of 2.0 μg/mL. […] The plate was read in an M384 ECL Analyzer with a draw volume of 100 μL under 96 standard plate protocol. […]

B1: mAb 61C6: monoclonal anti-5-FU antibody, IgG2b κ; heavy chain SEQ ID NO:2, light chain SEQ ID NO:6; from 3-carbon linker immunogen (antibody, listed as Mus musculus)
heavy: MDWLWNLLFLMAAAQSIQAQIQLVQSGPELKKPGETVTISCKASGYTLTNYGMNWVKQAPGKGLKWMGWINTNSGEPTYVEEFKGRFAFSLETSVSTVYLQISDLKHEDTATYFCARWGPHFNAYGWFAYWGQGTLVTVSAAKTTPPSVYPLAPGCGDTTGSSVTLGCLVKGYFPESVTVTWNSGSLSSSVHTFPALLQSGLYTMSSSVTVPSSTWPSQTVTCSVAHPASSTTVDKKLEPSGPISTINPCPPCKECHKCPAPNLEGGPSVFIFPPNIKDVLMISLTPKVTCVVVDVSEDDPDVQISWFVNNVEVHTAQTQTHREDYNSTIRVVSTLPIQHQDWMSGKEFKCKVNNKDLPSPIERTISKIKGLVRAPQVYILPPPAEQLSRKDVSLTCLVVGFNPGDISVEWTSNGHTEENYKDTAPVLDSDGSYFIYSKLNMKTSKWEKTDSFSCNVRHEGLKNYYLKKTISRSPGK
light: MMSSAQFLGLLLLCFQGTRCYIQMTQTASSLSASLGDRVTISCRASQDIWNYLNWYQQKPDGTIKLLIYYKSRLHSGVPSRFSGSGSGIDFSLTISNLEQEDFATYFCQQGHTLPWTFGGGSKLEIKRADAAPTVSIFPPSSEQLTSGGASVVCFLNNFYPKDINVKWKIDGSERQNGVLNSWTDQDSKDSTYSMSSTLTLTKDEYERHNSYTCEATHKTSTSPIVKSFNRNEC
notes: monoclonal anti-5-FU antibody, IgG2b κ; from 3-carbon linker immunogen
Cross-reactivity 5-FU ([1]; Table 3, (IC50 for 5-FU/IC50 for testing chemical)%, reference): 100%
Ratio of IC50 on 5-FU Conjugates with 5-carbon Linker vs. 3-carbon Linker ([1]; indirect ELISA, 5-FU IC50 on 5-carbon vs 3-carbon linker 5-FU conjugate): 4.7
Cross-reactivity Tegafur ([2]; Table 3): 28%
Tegafur Cross-reactivity** ([2]; indirect ELISA): 28%
Cross-reactivity DH-5-FU [3]: 1.4%
Cross-reactivity Uracil [4]: 1.4%
Cross-reactivity Cytosine [5]: 0.57%
Cross-reactivity Thymine [6]: Undetectble
specificity to 5-FU [7]: better specificity to 5-FU
reactivity with position 3 modified 5-FU (3-5C-5-FU-HSA) capture reagent [8]: reactive
